From the supplement of paper PMC11780869 come the findings set out here.

The data set concerns Bacillus subtilis. The data set can be described thus: cleaved RNA product abundance (RNA/gDNA barcode ratio) relative to median wild-type variant (ratio to wild type); higher = more accumulation of the downstream cleavage product. An outline of the steps:
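B. subtilis strains with chromosomally integrated reporter mRNAs (truncated aprE or tetM) holding barcoded, mutagenized RNase Y cleavage-site windows grew in LB at 37°C from OD600 0.0003 to 0.3. Cleaved product abundance is each construct's RNA:gDNA barcode ratio, scaled to the median construct with the unmutated site. It came from sequencing barcodes of gel-selected, reverse-transcribed cleaved RNA and of genomic DNA.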

Where [1] appears, read: experiment (reporter, strain, medium): exp 2b: truncated aprE reporter, strain BJT200, cleavage site: cggR-gapA (positions -7 to +36 mutated).
The mark [2] stands for this setting: experiment (reporter, strain, medium): exp 4a: truncated aprE reporter, strain BJT201 with 2% xylose (RNase J1 expressed), cleavage site: cggR-gapA (positions -7 to +36 mutated).
[3] abbreviates: experiment (reporter, strain, medium): exp 8a: truncated aprE reporter, strain BJT201 with 2% xylose (RNase J1 expressed), cleavage site: glnRA (positions -5 to +31 mutated).
Setting [4] is: experiment (reporter, strain, medium): exp 6: tetM reporter, strain 168, cleavage site: cggR-gapA (positions -7 to +36 mutated).

As to “ACAGACGAAGGAGCCGCAAAGAAGTTATTAAGGGATGAATAATTCCTCAATTTAAATATCTCTCACTTATTTAAA”, the “cleaved RNA product abundance” value was determined as 0.0889 under setting [1] and 0.0634 under setting [2].
“ACAGACGAAGGAGCCGCAAAGAAGTTATTAAGGGACGAATAATCCCTCAATATAAATAGCTCTCACTTATTTAAA”: the “cleaved RNA product abundance” value under setting [2] is 0.3.
“CGACATGTCCCGCTTCTTTCATTAATCCGTTAGCAACTGTTTTGCTATATACATTTTTCTTTTAAGAGGAGGAAT”: the “cleaved RNA product abundance” value under setting [3] is 0.479.
For the sequence “ACAGACGAAGGAGCCGCAAAGAAGTTATTAAGGGATGAATAATCCGTCAAAATAAATATCTCTCACTTATTTAAA”, under setting [2], the “cleaved RNA product abundance” value was found to be 0.262.
With “ACAGACGAAGGAGCCGCAAAGAAGTTATTAAAGGATGAATACTCCCTCAATATAAATATCTCTCACTTATTTAAA”, the “cleaved RNA product abundance” value under setting [1] is 0.117 and the “cleaved RNA product abundance” value under setting [2] amounted to 0.108.
Consider “ACAGACGAAGGAGCCGCAAAGATGTTATTAAGGGAAGAATAATCCCTCAATATAAATATCTCTCACTTATTTAAA”, for which the “cleaved RNA product abundance” value under setting [2] was 0.51.
Take “CGACATGTCCCGCTTCTTTCATTATTCCGTTAGCAACTTTTTTGCTATATACATTTACCTTTTAAGAGGAGGAAT”: the “cleaved RNA product abundance” value under setting [3] stood at 2.24.
For the sequence “ACAGACGAAGGAGCCGCAAAGAAGTTATTAAGGGATGAATAATCCCTCAATATAAATATCTCTCACTTATTTAAG”, the “cleaved RNA product abundance” value is 0.868 under setting [1] and 0.646 under setting [2].
“CGACATGTCCCGCTTCTTTCATTAATCCGATAGCAACTGTTTAGCTATATACATTTACCTTTTAAGAGGAGGAAT”: under setting [3], the “cleaved RNA product abundance” value amounted to 0.822.
Take “ACAGACGAAGGAGCCGCAAAGAAGTTATTCAGGGAAGAATAATCCCTCAATATAAATATCTCTCACTTATTTAAA”: under setting [2], the “cleaved RNA product abundance” value worked out at 0.697.
Take “CGACATGTCCCGCTTCTTTCATTAATCCGTTAGCAACTGGTTTGCTATATACATTTACCTTTTAAGAGGAGGAAT”: the “cleaved RNA product abundance” value under setting [3] came out at 0.811.
In the case of “ACAGACGAAGGAGCCGCAAAGATGTTATTAAGGGATGAATAATCCCTCAATATATATATCTCTCACTTATTTAAA”, the “cleaved RNA product abundance” value under setting [2] worked out at 0.975.
In the case of “ACAGACGAAGGAGCCGCAAAGAAGTTATTGAGGGATGAATAATCCCTCAATATAAATATCTCTCACTTATTTAAA”, the “cleaved RNA product abundance” value under setting [1] worked out at 0.116, the “cleaved RNA product abundance” value under setting [2] is 0.0555 and the “cleaved RNA product abundance” value under setting [4] turned out to be 0.247.
Consider “ACAGACGAAGGAGCCGCAAAGAAGTTATTAAGGGATCACTAATCCCTCAATATAAATATCTCTCACTTATTTAAA”, for which the “cleaved RNA product abundance” value under setting [2] was found to be 1.19.
The same measure, in the same setting: then “ACAGACGAAGGAGCCGCAAAGAAGTTATTAAGGGATGAATAAACCCTCACTATAAATATCTCTCACTTATTTAAA”, with 0.173.
Regarding “CGACATGTCCCGCTTCTTTCATTATTCCGTTAGCAACTGTTTTGCTATATACATTCACCTTTTAAGAGGAGGAAT”, the “cleaved RNA product abundance” value under setting [3] worked out at 1.3.
For the sequence “ACAGACGAAGGAGCCGCAAAAAAGTTATTAAGGGATGAATAATCACTCAATATAAATATCTCTCACTTATTTAAA”, the “cleaved RNA product abundance” value reads like this: under setting [1], 0.108; under setting [2], 0.12.
With “ACAGACGAAGGAGCCGCAAAGAAGTTATTAAGGGATGAATAATACCTCAATATAAATACCTCTCACTTATTTAAA”, the “cleaved RNA product abundance” value under setting [2] was 0.162.
As to “ACAGACGAAGGAGCCGCAAAGAATTTATTAAGGGATTAATAATCACTCAATATAAATATCTCTCACTTATTTAAA”, the “cleaved RNA product abundance” value under setting [2] came out at 0.153.
On the same count and under the same terms, to “ACAGACGAAGGAGCCGCAAAGAAGTTATTAATGGATGAATAATCCCTCAATATAAAGATCTCTCACTTATTTAAA” belongs 0.0975; to “ACAGACGAAGGAGCCGCAGAGAAGTTATTAAGGGATGAATAATCCATCAATATAAATATCTCTCACTTATTTAAA”, 0.178.
With “ACAGACGAAGGAGCCGCAAAGAAGTTATTAAGGTATAAATAATCCCTCAATATAAATATCTCTCACTTATTTAAA”, the “cleaved RNA product abundance” value by setting is: under setting [1], 0.0876; under setting [2], 0.112.
On to “CGACATGTCCCGCTTCTTTCATTAATCAGTTAGCAACTGTTTTGTTATATACATTTACCTTTTAAGAGGAGGAAT”, for which the “cleaved RNA product abundance” value under setting [3] amounted to 0.523.
Regarding “CGACATGTCCCGCTTCTTTCATTAATCCGTTATCAACTCTTTTGCTATATACATTTACCTTTTAAGAGGAGGAAT”, the “cleaved RNA product abundance” value under setting [3] came out at 0.252.
As to “CGACATGTCCCGCTTCTTTCATTATCCCGTTAGCAACTGTTTTGCTATATACATTTACCTTTTAAGAGGAGGAAT”, the “cleaved RNA product abundance” value under setting [3] was determined as 1.49.
In the case of “ACAGACGAAGGAGCCGCAAAGAAGTTATTAACGGATGGATAATCCCTCAATATAAATATCTCTCACTTATTTAAA”, the “cleaved RNA product abundance” value under setting [2] came to 0.152.
Same read-out and setting: to “ACAGACGAAGGAGCCGCAAAGAAGTTATTAAGAGATGAATAATGCCTCAATATAAATATCTCTCACTTATTTAAA” belongs 0.1; to “ACAGACGAAGGAGCCGCAAATAAGTTATTAATGAATGAATAATCCCTCAATATAAATATCTCTCACTTATTTAAA”, 0.107.
In the case of “ACAGACGAAGGAGCCGCAAAGAATTTATTAAGGGATGAATAATCCCTCACTATAAATATCTCTCACTTATTTAAA”, the “cleaved RNA product abundance” value came to 0.193 under setting [1] and 0.283 under setting [2].
As to “CGACATGTCCCGCTTCTTTCATTAATCCGTTAACAACTGTCTTGCTATATACATTTACCTTTTAAGAGGAGGAAT”, the “cleaved RNA product abundance” value under setting [3] was 0.0713.
Turning to “CGACATGTCCCGCTTCTTTCATTATTCCGTAAGCGACTGTTTTGATATATACATTTACCTTTTAAGAGGGGGAAT”, the “cleaved RNA product abundance” value under setting [3] worked out at 0.359.
Turning to “CGACATGTCCCGCTTCTTTCATTATTCAGTTAGCAACTGTTTTGCTATATACATTTACCTTTTAAGAGGAGGAAT”, the “cleaved RNA product abundance” value under setting [3] worked out at 1.38.
Regarding “ACAGACGAAGGAGCCGCAAACAAGTTATTAAGGGACGAATAATCCCTCAATATAAATATCTCTCACTTATTTAAA”, the “cleaved RNA product abundance” value under setting [2] turned out to be 0.279.
Take “ACAGACGAAGGAGCCGCAAAAAAGTTATTAAGGGATGAATAATCCCTGAATATAAAGATCTCTCACTTATTTAAA”: the “cleaved RNA product abundance” value under setting [1] turned out to be 0.364.
As for “CGACATGTCCCGCTTCTTTCATTAATCCGTAAGCAATTGTTTTGCTATATACATTTACCTTTTAAGAGGAGGAAT”, under setting [3], the “cleaved RNA product abundance” value stood at 0.524.
For “ACAGACGAAGGAGCCGCAAAGAATTTATTAAGGGATGAATAATCCCTCAATATAAGTATCTCTCACTTATTTAAA”, the “cleaved RNA product abundance” value under setting [2] was found to be 0.216.
In the case of “CGACATGTCCCGCTTCTTTCATTATTCCGTTAGCAAATGTTGTGCTATATACATTTACCTTTTAAGAGGAGGAAT”, under setting [3], the “cleaved RNA product abundance” value amounted to 0.444.
With “ACAGACGAAGGAGCCGCAAAGAAGTTATTAGGGGATGAATAATCCTTCAATATAAATATCTCTCACTTATTTAAA”, the “cleaved RNA product abundance” value under setting [2] was found to be 0.636.
With “ACAGACGAAGGAGCCGCAAAGAAGTTATTAAACGATGAATAATCTCTCAATATAAATATCTCTCACTTATTTAAA”, the “cleaved RNA product abundance” value runs as follows: under setting [1], 0.109; under setting [2], 0.179.
Turning to “CGACATGTCCCGCTTCTTTCATTAATCCTTTAGCAACTGTTTTGCTATATACATATACCTTTTAAGAGGAGGAAT”, the “cleaved RNA product abundance” value under setting [3] stood at 0.842.
With “CGACATGTCCCGCTTCTTTCATTAATCCGTTAGCAACTGTTTTACTATAAACATTTACCTTTTAAGAGGAGGAAT”, the “cleaved RNA product abundance” value under setting [3] turned out to be 0.553.
On to “ACAGACGAAGGAGCCGCAAAGAAGTTATGAATGGATGAATAATCCCTCAATATAAATATCTCTCACTTATTTAAA”, for which the “cleaved RNA product abundance” value under setting [2] was 0.147.
For “CGACATGTCCCGCTTCTTTCATTAATTCGTTAGAAACTGTTTTGCTATATACATTTACCTTTTAAGAGGAGGAAT”, the “cleaved RNA product abundance” value under setting [3] amounted to 0.285.
For the sequence “ACAGACGAAGGAGCCGCAAAGAAGTTAATAAGGCATGAATAATCCCTCAATATAAATATCTCTCACTTATTTAAA”, the “cleaved RNA product abundance” value reads like this: under setting [1], 0.0718; under setting [2], 0.104.
In the case of “ACAGACGAAGGAGCCGCAAAGAAGTTATTAAGGAATGAATAATCCCTCAATATAAATATCTCTCACTTATTTAAA”, the “cleaved RNA product abundance” value by setting is: under setting [1], 0.109; under setting [2], 0.132; under setting [4], 0.126.
In the case of “CGACATGTCCCGCTTCTTTCATTACTCCGTTAGCAACTGTTTAGCTATATACATTTACCTTTTAAGAGGAGGAAT”, the “cleaved RNA product abundance” value under setting [3] amounted to 0.694.
With “ACAGACGAAGGAGCCGCAAAGAATTTATTAAGGGATGAACAATCCCTCAATATAAAAATCTCTCACTTATTTAAA”, the “cleaved RNA product abundance” value under setting [2] is 0.8.
“CGACATGTCCCGCTTCTTTCATTAATCCGTTAGCATCTGTTTTCCTATATACATTTACCTTTTAAGAGGAGGAAT”: the “cleaved RNA product abundance” value under setting [3] amounted to 0.524.
Consider “CGACATGTCCCGCTTCTTTCATTAATCCTTTAGCAACTGTTTTGTTATATACATTTACCTTTTAAGAGGAGGAAT”, for which the “cleaved RNA product abundance” value under setting [3] stood at 0.553.
Turning to “ACAGACGAAGGAGCCGCAAAGAAGTTATCAAGGGATGAATAATCGCTCAATATAAATATCTCTCACTTATTTAAA”, the “cleaved RNA product abundance” value under setting [2] is 0.0908.
With “CGACATGTCCCGCTTCTTTCATTAATCCTTTAGCAACTGTTTTGCTATACACATTTACCTTTTAAGAGGAGGAAT”, the “cleaved RNA product abundance” value under setting [3] came out at 0.451.
For “ACAGACGAAGGAGCCGCAAAGAAGTTATTAAGGGATGAATAATCCCTCAATATGAATATCTCTCACTTATTTAAA”, the “cleaved RNA product abundance” value is 0.153 under setting [1], 0.102 under setting [2] and 0.0685 under setting [4].
With “ACAGACGAAGGAGCCGCAAAGAAATTATTAAGCGATGAATAATCACTCAATATAAATATCTCTCACTTATTTAAA”, the “cleaved RNA product abundance” value under setting [2] came out at 0.184.
As for “ACAGACGAAGGAGCCGCAAAGAAGTTGTTAAGGGCTGAATAATCCCTCAATATAAATATCTCTCACTTATTTAAA”, under setting [2], the “cleaved RNA product abundance” value worked out at 0.198.
As to “ACAGACGAAGGAGCCGCAAAGAAGTGATTAAGGCATGAATAATCCCTCAATATAAATATCTCTCACTTATTTAAA”, the “cleaved RNA product abundance” value under setting [1] worked out at 0.11.
